We go through two molecules from patent US20240368275A1 (ELPIS BIOPHARMACEUTICALS, published 2024).

Assay [1] addresses T1, CD3 on Jurkat cells (UniProt P07766 23-207, limits assumed). The assay is described as follows: cell-based or functional assay.
Assay [2] concerns the target T1, CD3 on Jurkat cells. The assay is described as follows: flow cytometry on Jurkat cells. The procedure: Jurkat cells were plated at 100,000 cells/well in a 96-well plate with 50 μL of full media. Anti-Nectin4/CD3 antibodies were 3-fold serial titrated from 20 nM. 50 μL was added to the cells and incubated for 1 hours at room temperature with shaking. Samples were washed one time with flow buffer. […] Samples were washed once with flow buffer. Samples were stained with 100 uL Zombie Fixable Viability Dyes at 1:800 dilution per well and incubated in dark at room temperature for 30 mins. Samples were spun down at 1300 rpm for 5 minutes and washed once with 200 uL flow buffer. Reconstituted samples in 200 uL of flow buffer and read on Attune NxT cytometer. EC50 values for CD3 binding were calculated using Prism 8.1 software.

Assay [3] has as its target T2, full-length human Nectin4 with C-terminal flag and Myc tags on CHO cells (human, UniProt Q96NY8 32-510).
T2 construct: whole, on cells; also called Nectin4/CHO; CHO/Nectin4; not shown: C-terminal flag and Myc tags of pCMV6-Entry vector
T2 sequence (looked up): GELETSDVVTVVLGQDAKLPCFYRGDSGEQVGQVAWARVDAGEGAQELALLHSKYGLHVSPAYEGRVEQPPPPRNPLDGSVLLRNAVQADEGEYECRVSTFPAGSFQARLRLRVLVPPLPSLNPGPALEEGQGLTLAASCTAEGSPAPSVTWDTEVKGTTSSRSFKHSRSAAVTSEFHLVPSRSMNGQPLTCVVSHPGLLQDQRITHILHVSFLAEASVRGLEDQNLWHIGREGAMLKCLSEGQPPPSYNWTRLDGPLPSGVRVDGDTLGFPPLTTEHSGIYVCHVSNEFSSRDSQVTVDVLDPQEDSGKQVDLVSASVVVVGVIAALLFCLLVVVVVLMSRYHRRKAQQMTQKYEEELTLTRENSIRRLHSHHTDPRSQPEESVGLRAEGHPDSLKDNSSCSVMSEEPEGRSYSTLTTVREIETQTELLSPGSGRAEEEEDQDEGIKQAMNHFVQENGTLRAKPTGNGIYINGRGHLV
The assay is described as follows: flow cytometry on CHO/Nectin4 cells. The procedure:
Nectin4/CHO Nectin4 cells were plated at 100,000 cells/well in a 96-well plate in 50 μL of full media. Cells were rested 1 hour at 37° C. Anti-Nectin4/CD3 was 3-fold serial titrated from 50 nM. 50 μL was added to the cells and incubated for 1 hours with shaking. Samples were washed one time with flow buffer. […] Samples were washed once with flow buffer. Samples were stained with 100 uL Zombie Fixable Viability Dyes (1:800 dilution) per well and incubated in dark at room temperature for 30 mins. Samples were spun down at 1200 rpm for 5 minutes and washed once with 200 uL flow buffer. Reconstituted samples in 200 uL of flow buffer and read on Attune NxT cytometer. EC₅₀ values for Nectin4 Binding were determined using Prism software.

The target in assay [4] is T3, human CD3E HIS tagged protein (human, UniProt P07766 23-126).
T3 construct: not shown: HIS tag
T3 sequence (P07766 23-126 limits assumed): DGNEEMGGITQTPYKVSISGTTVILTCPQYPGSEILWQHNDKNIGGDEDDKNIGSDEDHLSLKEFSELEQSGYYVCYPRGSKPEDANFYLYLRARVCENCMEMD
The assay is described as follows: SPR Biacore T200, bispecific captured on Protein A chip, CD3E-HIS injected. The procedure:
(§1) The assay was run with Biacore T200 control software version 2.0. For each cycle, 1 ug/mL of anti-hNectin4/CD3 antibody was captured for 60 seconds at flow rate of 10 ul/min on flow cell 2 in 1×HBSP buffer on Protein A sensor chip. 2-fold serial diluted CD3E-HIS or hNectin4-HIS tagged protein was injected onto both reference flow cell 1 and anti-Nectin4/CD3 bispecific captured flow cell 2 for 150 seconds at flow rate of 30 ul/mins followed by wash for 300 seconds. The flow cells were then regenerated with Glycine pH2 for 60 seconds at flow rate of 30 ul/mins. 8 concentration points from 100 nM-0 nM (CD3E-HIS) or 300 nM-0 nM (Nectin4-HIS) was assayed per anti-Nectin4 IgG in a 96 well plate. The kinetics of Anti-Nectin4/CD3 bispecific binding to CD3E and Nectin4 proteins was analyzed with Biacore T200 evaluation software version 3.0. The specific binding response unit was derived from subtraction of binding to reference flow cell 1 from antibody captured flow cell 2. Table 10 below listed the kinetics results. ND means not determined. NA means data not available.
In general terms: Surface plasmon resonance follows binding to a sensor surface in real time, without labels.

Assay [5] addresses T4, human Nectin4-HIS tagged recombinant protein (human, UniProt Q96NY8 32-349).
T4 construct: also called hNectin4-HIS; Nectin4 HIS tagged protein; not shown: HIS tag
T4 sequence (looked up): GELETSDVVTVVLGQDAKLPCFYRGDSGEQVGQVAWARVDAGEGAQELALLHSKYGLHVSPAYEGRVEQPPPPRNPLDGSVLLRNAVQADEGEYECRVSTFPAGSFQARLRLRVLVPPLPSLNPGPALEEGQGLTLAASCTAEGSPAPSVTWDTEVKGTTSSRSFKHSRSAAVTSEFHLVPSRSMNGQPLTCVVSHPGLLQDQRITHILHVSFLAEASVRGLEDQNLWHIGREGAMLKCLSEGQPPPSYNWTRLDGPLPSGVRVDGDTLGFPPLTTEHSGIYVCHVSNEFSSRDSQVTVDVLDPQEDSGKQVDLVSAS
The assay is described as follows: ELISA, coated Nectin4 HIS tagged protein, bispecific titrated, anti-Human HRP. The procedure:
(§2) An ELISA assay was developed to determine the EC₅₀ of anti-Nectin4/CD3 bispecific antibodies. Briefly, 384 well plate was immobilized with human CD3E or Nectin4 HIS tagged protein at final concentration of 2 ug/mL in 1×PBS in total volume of 25 uL per well. The plate was incubated overnight at 4° C. followed by blocking with 80 uL of superblock per well for 1 hour. Purified anti-Nectin4/CD3 was 3-fold serial titrated from 100 nM. 25 uL was added to human Nectin4/CD3 immobilized wells and incubated for 1 hour with shaking. The CD3E or Nectin4 binding was detected by adding 25 uL of anti-Human HRP diluted at 1:10000 in 1×PBST. In between each step, the plate was washed 3 times with […] in a plate washer. The plate was then developed with 20 ul of TMB substrate for 5 mins and stopped by adding 20 ul of 2N sulfuric acid. The plate was read at OD450 nm Biotek plate reader and then plotted in Prism 8.1 software to calculate EC50.
On the technique in general: ELISA stands for enzyme-linked immunosorbent assay.

Assay [6] addresses T4, human Nectin4-HIS tagged recombinant …. The assay is described as follows: SPR Biacore T200, bispecific captured on Protein A chip, hNectin4-HIS injected. The procedure: as §1
For assay [7], the target named is T3, human CD3E HIS tagged protein. The assay is described as follows: ELISA, coated human CD3E HIS tagged protein, bispecific titrated, anti-Human HRP. As to the method:
as §2

Assay [8] deals with T2, full-length human Nectin4 with …. The assay is described as follows: cell-based or functional assay.
The target of the next assay is T5, mouse nectin4 protein (mouse, UniProt Q8R007 31-347, limits assumed).
T5 sequence (looked up): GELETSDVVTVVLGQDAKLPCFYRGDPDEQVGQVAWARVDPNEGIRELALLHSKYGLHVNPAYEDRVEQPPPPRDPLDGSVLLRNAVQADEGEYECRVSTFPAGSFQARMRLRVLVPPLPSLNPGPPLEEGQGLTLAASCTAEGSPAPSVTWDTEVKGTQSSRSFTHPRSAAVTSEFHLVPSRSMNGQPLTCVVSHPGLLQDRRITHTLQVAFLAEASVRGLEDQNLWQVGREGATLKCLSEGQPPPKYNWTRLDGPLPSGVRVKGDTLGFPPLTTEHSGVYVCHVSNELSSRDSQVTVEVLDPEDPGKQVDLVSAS
The assay is described as follows: ELISA, coated mouse nectin4, IgG titrated, anti-hFc HRP.

Another assay concerns the target monkey nectin4 protein (monkey). The assay is described as follows: ELISA, coated monkey nectin4, IgG titrated, anti-hFc HRP.
For assay [9], the target named is T4, human Nectin4-HIS tagged recombinant …. The assay is described as follows: ELISA, coated human Nectin4-HIS, IgG titrated, anti-hFc HRP. As to the method:
An ELISA assay was developed to determine the EC₅₀ of exemplary anti-Nectin4 IgG antibodies. Briefly, 384 well plate was immobilized with human Nectin4-HIS tagged recombinant protein at final concentration of 2 ug/mL in 1×PBS in total volume of 25 uL per well. The plate was incubated overnight at 4° C. followed by blocking with 80 uL of superblock per well for 1 hour. Titration of purified anti-Nectin4 IgG starting at 200 nM 2-fold serial dilution, 25 uL was added to human Nectin4 immobilized wells and incubated for 1 hour with shaking. The Nectin4 binding was detected by adding 25 uL of anti-hFc HRP diluted at 1:5000 in 1×PBST. In between each step, the plate was washed 3 times with 1×PBST in a plate washer. The plate was then developed with 20 ul of TMB substrate for 5 mins and stopped by adding 20 ul of 2N sulfuric acid. The plate was read at OD450 nm Biotek plate reader and then plotted in Prism 8.1 software.

Assay [10] has the same target. The assay is described as follows: ELISA, coated human Nectin4-HIS, antibody titrated, anti-hFc HRP.
In assay [11] the target is T2, full-length human Nectin4 with …. The assay is described as follows: flow cytometry, IgG on Nectin4/CHO cells, anti-hFc Alexa fluor 647. As to the method:
200 nM of purified anti-Nectin4 IgG antibodies were diluted in full medium and incubated with Nectin4/CHO and CHO cells in 96 wells plate on ice for 1 hour. Cells were spun down at 1200 rpm for 5 minutes at 4° C. to remove primary antibodies. Cells were then washed once with 200 uL of full medium per well. Samples were detected with anti-hFc Alexa fluor 647 by adding 100 uL of diluted secondary antibody and incubated at 4° C. for 30 minutes in the dark. Samples were spun down at 1200 rpm for 5 minutes at 4° C. and washed twice with 200 uL of 1×PBS per well. Reconstituted samples in 200 uL of 1×PBS and read on Attune NxT cytometer. Analysis was done by Attune NxT software plotting the overlay histogram of […] proteins binding onto both negative and target cell lines.
A general note: Flow cytometry measures light scatter and fluorescence of single cells or particles in a stream.

For assay [12], the target named is T4, human Nectin4-HIS tagged recombinant …. The assay is described as follows: SPR Biacore T200, IgG captured on Protein A chip, hNectin4-HIS injected. As to the method:
Kinetic analysis of anti-Nectin4 IgG has been assessed by the SPR technology with Biacore T200. The assay was run with Biacore T200 control software version 2.0. For each cycle, 1 ug/mL of anti-hNectin4-IgG was captured for 60 seconds at flow rate of 10 ul/min on flow cell 2 in 1×HBSP buffer on Protein A sensor chip. 2-fold serial hNectin4-HIS tagged protein was injected onto both reference flow cell 1 and anti-Nectin4 IgG captured flow cell 2 for 150 seconds at flow rate of 30 ul/mins followed by wash for 300 seconds. The flow cells were then regenerated with Glycine pH2 for 60 seconds at flow rate of 30 ul/mins. 8 concentration points from 100-0 nM was assayed per anti-Nectin4 IgG in a 96 well plate. The kinetics of Anti-Nectin4 IgG binding to Nectin4 protein was analyzed with Biacore T200 evaluation software version 3.0. The specific binding response unit was derived from subtraction of binding to reference flow cell 1 from antibody captured flow cell 2.

T1 sequence (P07766 23-207 limits assumed): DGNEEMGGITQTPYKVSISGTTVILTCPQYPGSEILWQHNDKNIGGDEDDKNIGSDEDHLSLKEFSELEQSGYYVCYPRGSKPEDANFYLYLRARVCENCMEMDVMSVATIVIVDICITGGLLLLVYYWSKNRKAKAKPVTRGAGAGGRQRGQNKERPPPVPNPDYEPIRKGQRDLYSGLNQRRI

B1: EP369/EP370/EP289 anti-Nectin4/CD3 bispecific antibody (bispecific antibody)
chain: not shown
heavy: EVQLVQSGAEVKKPGASVKVSCKASGYTFTGYYMHWVRQAPGQGLEWMGRINPNSGGTNYAQKFQGRVTMTRDTSISTAYMELSGLRSDDTAVYFCARVTYNIGWYIDYWGQGTLVTVSSASTKGPSVFPLAPSSKSTSGGTAALGCLVKDYFPEPVTVSWNSGALTSGVHTFPAVLQSSGLYSLSSVVTVPSSSLGTQTYICNVNHKPSNTKVDKKVEPKSCDKTHTCPPCPAPEAAGGPSVFLFPPKPKDTLMISRTPEVTCVVVDVSHEDPEVKFNWYVDGVEVHNAKTKPREEQYNSTYRVVSVLTVLHQDWLNGKEYKCKVSNKALGAPIEKTISKAKGQPREPQVCTLPPSRDELTKNQVSLSCAVKGFYPSDIAVEWESNGQPENNYKTTPPVLDSDGSFKLVSKLTVDKSRWQQGNVFSCSVMHEALHNHYTQKSLSLSPGK
light: QAVVTQPPSVSVAPGKTATITCGGNNIGSKGVHWYQQKPGQAPVLVIYYDTDRPSGIPERLSGSNSGNTATLTISRVEAGDEADYYCQVWDSSSDHPVFGGGTKLTVLGQPKANPTVTLFPPSSEELQANKATLVCLISDFYPGAVTVAWKADGSPVKAGVETTKPSKQSNNKYAASSYLSLTPEQWKSHRSYSCQVTHEGSTVEKTVAPTECS
notes: Monovalent format: anti-CD3 sp34 scFv-Fc knob (EP369), EP034-B09 heavy chain hole without ADCC (EP370), EP034-B09 light chain (EP289); also called EP369/370/289
For B1, the “NFAT reporter EC50” value in the assay with CD3 on Jurkat cells [1] was determined as 0.0038 nM. In addition, the EC50 with CD3 on Jurkat cells [2] was 0.169 nM; in [3] it was 0.146 nM; in assay [5] it was 0.019 nM; in assay [7], 0.005 nM. Moreover, the dissociation constant Kd in [4] came out at 2.23 nM; in assay [6], 1.22 nM. Further, the koff in [4] is 0.00059 s⁻¹; in [6] it was 0.00012 s⁻¹. Further, the results for the kon in [4] and in assay [6] were 265000 M⁻¹ s⁻¹ and 98800 M⁻¹ s⁻¹, respectively.

B2: 2020EP034-B09 IgG (EP299/EP289) (antibody, V domains shown)
VH: EVQLVQSGAEVKKPGASVKVSCKASGYTFTGYYMHWVRQAPGQGLEWMGRINPNSGGTNYAQKFQGRVTMTRDTSISTAYMELSGLRSDDTAVYFCARVTYNIGWYIDYWGQGTLVTVSS
VL: QAVVTQPPSVSVAPGKTATITCGGNNIGSKGVHWYQQKPGQAPVLVIYYDTDRPSGIPERLSGSNSGNTATLTISRVEAGDEADYYCQVWDSSSDHPVFGGGTKLTVLG
notes: Human IgG1 with lambda light chain; entries without signal peptide used; also called EP034-B09, mAb
B2: the “ADCC Bioreporter assay EC50” value in assay [8] was determined as 1.16 nM. Besides, the EC50 with mouse nectin4 protein was 0.017 nM; with monkey nectin4 protein it was 0.019 nM; in [9], 0.018 nM; in [10] it was 0.061 nM; in assay [11], 0.0062 nM. Further, in [12], the dissociation constant Kd was determined as 1.47 nM.

Broadly, the EC50 is the concentration needed to bring the measured effect to its halfway point. What is called Kd is the equilibrium constant for the complex coming apart. The term koff denotes the first-order rate constant of dissociation. The kon is a measure of how fast the partners come together.
